Experimental findings from US20240207421A1, “NERVE TARGETING PEPTIDES AND METHODS OF USE” (ALUME BIOSCIENCES, INC., priority 2020, published 2024) are described below.

First the molecules themselves.
B1: … (peptide)
peptide: TLKAGTRANDGV
B2: AQRMNQA (peptide)
peptide: AQRMNQA
B3: … (peptide)
peptide: DWTQVRVTNWFL
B4: … (peptide)
peptide: WGWNGANMSPRG
B5: … (peptide)
peptide: TFAAAQAELIMV
B6: … (peptide)
peptide: SYDGTMLKQVRL
B7: GDAQILM (peptide)
peptide: GDAQILM
B8: … (peptide)
peptide: QALRTNYSPLNS
B9: … (peptide)
peptide: LGPSTQGAGQTR
B10: … (peptide)
peptide: GHRTLVTSERYL
B11: … (peptide)
peptide: NWTHLGVARLQP
B12: … (peptide)
peptide: CLKDTHLNC
B13: … (peptide)
peptide: ALPWQSGVHGTK
B14: … (peptide)
peptide: CWSGNSRSC
B15: … (peptide)
peptide: GSTTHPHFGLPG
B16: … (peptide)
peptide: CGETTAGKC
B17: MTNSGAK (peptide)
peptide: MTNSGAK
B18: … (peptide)
peptide: AHAAGRDMRQGT
B19: LPMLRHS (peptide)
peptide: LPMLRHS
B20: … (peptide)
peptide: TFGSGRSMPIQY
B21: … (peptide)
peptide: WEEHRVEILPDV
B22: … (peptide)
peptide: WSPANGWRHQTI
B23: … (peptide)
peptide: DVIHSSRGAYFE
B24: … (peptide)
peptide: CLHNGQRSC
B25: WAYTDYM (peptide)
peptide: WAYTDYM
B26: … (peptide)
peptide: DIMKSPRSNLRS
B27: … (peptide)
peptide: NDTGRHASGISK
B28: … (peptide)
peptide: GQPRNIHLPGTH
B29: … (peptide)
peptide: CHNADNNGC
B30: ANRYLAS (peptide)
peptide: ANRYLAS
B31: … (peptide)
peptide: LARSSIMAANNV
B32: HSTYAPG (peptide)
peptide: HSTYAPG
B33: … (peptide)
peptide: ALKIGPETTIYM
B34: … (peptide)
peptide: SNPKHVSSLGQM
B35: … (peptide)
peptide: CSVWNSGNC
B36: FPLKIRT (peptide)
peptide: FPLKIRT
B37: … (peptide)
peptide: SLNTTWVSPMMK
B38: … (peptide)
peptide: WQWRSTELGYRY
B39: … (peptide)
peptide: CFQPKMNSC
B40: … (peptide)
peptide: QINWKQADKNAD
B41: QGHPFIY (peptide)
peptide: QGHPFIY
B42: … (peptide)
peptide: QTFHEYLNPARG
B43: … (peptide)
peptide: GWIQDTFVLGRS
B44: … (peptide)
peptide: LGHQNGGRADMW
B45: … (peptide)
peptide: CTPRSATLC
B46: … (peptide)
peptide: CTGRISKHC
B47: … (peptide)
peptide: AQGVWWSEWFAP
B48: … (peptide)
peptide: CKWTQLWGC
B49: … (peptide)
peptide: WGANTTGRTHGG
B50: … (peptide)
peptide: VYRNGGGLPLTA
B51: … (peptide)
peptide: AKTQAPSNWSGV

The test addresses Laminin 421/521. In words: phage display, NGS count.
B1 came in with a Count of 32. The value for B2 was 38; that for B3 was 35. The molecule B4 showed a Count of 31. On to B5, for which the Count came to 38.

As to B6, the Count came out at 36. Molecule B7 returned a Count of 38. The value for B8 was 32; that for B9 was 38; that for B10 was 38. The value for B11 was 36; that for B12 was 40; that for B13 was 34. The value for B14 was 42. Molecule B15 returned a Count of 40. Molecule B16 had a Count of 33. For B17, the Count is 35. The value for B18 was 36. The value for B19 was 32; that for B20 was 34. Molecule B21 yielded a Count of 38. Molecule B22 registered a Count of 36. As to B23, the Count was 36. Regarding B24, the Count was determined as 37.

Molecule B25 showed a Count of 35. The value for B26 was 37; that for B27 was 32; that for B28 was 40. The value for B29 was 32; that for B30 was 40; that for B31 was 42. On to B32, for which the Count was 33. B33 registered a Count of 35. The value for B34 was 40; that for B35 was 43; that for B36 was 42.

B37 registered a Count of 37. The value for B38 was 36; that for B39 was 42.

B40 showed a Count of 33. Turning to B41, the Count worked out at 40. The value for B42 was 37; that for B43 was 40. Take B44: the Count came out at 35. Regarding B45, the Count turned out to be 37. As for B46, the Count is 43. B47 returned a Count of 42. The molecule B48 had a Count of 40. As to B49, the Count was 40. On to B50, for which the Count was 34. B51: the Count was determined as 43.
